This passage reports binding result and Kd results from paper PMC5628404, “Central catalytic domain of BRAP (RNF52) recognizes the types of ubiquitin chains and utilizes oligo-ubiquitin for ubiquitylation” (Biochemical Journal, 2017).

The assay concerns the target T1, M1-linked di-ubiquitin chain (M1-Ub2) (human, UniProt P0CG48 1-76; P0CG48 1-76).
T1 construct: ubiquitin unit 1 of 2, joined head to tail (M1 linkage); from polyubiquitin-C (UBC), human; ubiquitin unit 2 of 2, joined head to tail (M1 linkage); One polypeptide of two ubiquitin units joined by a peptide bond G76-M1; also called linear di-ubiquitin; source: E. coli KRX, purified (method of Pickart and Raasi); made in the authors' laboratory
The experiment in a line: SPR; Biacore 3000; ubiquitin monomer or ubiquitin chains amine-coupled to a CM5 chip; BRAP as analyte, serially diluted; 10 mM HEPES-NaOH pH 7.5, 150 mM NaCl, 0.005% surfactant P20; 25°C. The note with it: both partners purified.

By Kd is commonly meant the constant that tells how readily two partners part at equilibrium. A low value points to higher affinity.

B1: BRAP (1–592) (full-length) (natural protein, human, UniProt Q7Z569 1-592, looked up)
chain: MSVSLVVIRLELAEHSPVPAGFGFSAAAGEMSDEEIKKTTLASAVACLEGKSPGEKVAIIHQHLGRREMTDVIIETMKSNPDELKTTVEERKSSEASPTAQRSKDHSKECINAAPDSPSKQLPDQISFFSGNPSVEIVHGIMHLYKTNKMTSLKEDVRRSAMLCILTVPAAMTSHDLMKFVAPFNEVIEQMKIIRDSTPNQYMVLIKFRAQADADSFYMTCNGRQFNSIEDDVCQLVYVERAEVLKSEDGASLPVMDLTELPKCTVCLERMDESVNGILTTLCNHSFHSQCLQRWDDTTCPVCRYCQTPEPVEENKCFECGVQENLWICLICGHIGCGRYVSRHAYKHFEETQHTYAMQLTNHRVWDYAGDNYVHRLVASKTDGKIVQYECEGDTCQEEKIDALQLEYSYLLTSQLESQRIYWENKIVRIEKDTAEEINNMKTKFKETIEKCDNLEHKLNDLLKEKQSVERKCTQLNTKVAKLTNELKEEQEMNKCLRANQVLLQNKLKEEERVLKETCDQKDLQITEIQEQLRDVMFYLETQQKINHLPAETRQEIQEGQINIAMASASSPASSGGSGKLPSRKGRSKRGK
notes: The construct had the tag, a TEV site and a GSSGSSG linker at the N-terminus; after TEV cleavage the linker probably stays on the protein (surmised); also called full-length BRAP; BRAP2; source: cell-free synthesis in E. coli S30 extract, zinc supplemented; purified (MBPTrap, TEV cleavage, ion exchange, gel filtration); not shown: MBP, N-terminal, cleaved
As to B1, the binding result is listed as “binds”.

B2: BRAP (124–569) (RNF52 domain) (domain or fragment, human, UniProt Q7Z569 124-569, looked up)
chain: DQISFFSGNPSVEIVHGIMHLYKTNKMTSLKEDVRRSAMLCILTVPAAMTSHDLMKFVAPFNEVIEQMKIIRDSTPNQYMVLIKFRAQADADSFYMTCNGRQFNSIEDDVCQLVYVERAEVLKSEDGASLPVMDLTELPKCTVCLERMDESVNGILTTLCNHSFHSQCLQRWDDTTCPVCRYCQTPEPVEENKCFECGVQENLWICLICGHIGCGRYVSRHAYKHFEETQHTYAMQLTNHRVWDYAGDNYVHRLVASKTDGKIVQYECEGDTCQEEKIDALQLEYSYLLTSQLESQRIYWENKIVRIEKDTAEEINNMKTKFKETIEKCDNLEHKLNDLLKEKQSVERKCTQLNTKVAKLTNELKEEQEMNKCLRANQVLLQNKLKEEERVLKETCDQKDLQITEIQEQLRDVMFYLETQQKINHLPAETRQEIQEGQINIAMASA
notes: The construct had the tag, a TEV site and a GSSGSSG linker at the N-terminus; after TEV cleavage the linker probably stays on the protein (surmised); also called RNF52 domain of BRAP; central catalytic domain of BRAP; source: cell-free synthesis in E. coli S30 extract, zinc supplemented; purified (HisTrap, TEV cleavage, ion exchange, gel filtration)
Molecule B2 had a Kd of 0.0951 µM.
